Reference: US20090155285A1 (Eli Lilly, published 2009)
Numbering of substitutions follows the chain as printed.

T1: mature human TGF-β3 (human, UniProt P10600 301-412)
T1 construct: Bought protein (RDI, Cat # RDI-1036/CF); also called TGF-b3
T1 sequence: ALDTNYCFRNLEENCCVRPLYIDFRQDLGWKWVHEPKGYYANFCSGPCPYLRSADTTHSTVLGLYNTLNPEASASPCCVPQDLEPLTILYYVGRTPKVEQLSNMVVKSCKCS

T2: mature human TGF-β2 (human, UniProt P61812 303-414)
T2 construct: Bought protein (RDI, Cat # RDI-1035); also called TGF-b2
T2 sequence: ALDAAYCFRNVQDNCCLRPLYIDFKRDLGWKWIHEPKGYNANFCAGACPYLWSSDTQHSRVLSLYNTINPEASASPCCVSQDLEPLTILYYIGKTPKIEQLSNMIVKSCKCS

B1: Fab 3.A (Fab, V domains shown)
VH: QVQLVQSGAEVKKPGASVKVSCKASGYTFTSYWMNWVRQAPGQGLEWMGQIFPASGSTNYGEMFEGRVTMTTDTSTSTAYMELRSLRSDDTAVYYCARGIGNYALDAMDYWGQGTLVTVSS
VL: DIQMTQSPSSLSASVGDRVTITCRASESVDFWGNSFMHWYQQKPGKAPKLLIYLASNLESGVPSRFSGSGSGTDFTLTISSLQPEDFATYYCQQNIEDPLTFGGGTKVEIKR
notes: The mAb was made by linking the Fab to an IgG4 Fc region, so the mAb's chains are named; The heavy chain entry also holds the Fc, which is not in the Fab
B2: Fab 4.17 (Fab, V domains shown)
VH: B1 VH with A54F, G61N
VL: B1 VL with I96A
notes: as for B1
B3: Fab 12.4 (Fab, V domains shown)
VH: B1 VH with S55L
VL: B1 VL with F31W
notes: as for B1
B4: Fab 12.7 (Fab, V domains shown)
VH: B1 VH with Y32E, S55L, G61N, F64Y
VL: B1 VL with W32Y
notes: as for B1
B5: Fab 12.8 (Fab, V domains shown)
VH: B1 VH with S55L, G61N
VL: B1 VL with F31W, W32Y, L54Y, I96A
notes: as for B1
B6: mAb 12.4 (antibody, human IgG4 S228P, kappa, V domains shown)
VH: B1 VH with S55L
VL: B1 VL with F31W
notes: Full-length monoclonal antibody, made by linking the Fab to an IgG4 Fc region
B7: mAb 3.A (antibody, human IgG4 S228P, kappa, V domains shown)
VH: B1 VH
VL: B1 VL
notes: as for B6
B8: mAb 12.8 (antibody, human IgG4 S228P, kappa, V domains shown)
VH: B1 VH with S55L, G61N
VL: B1 VL with F31W, W32Y, L54Y, I96A
notes: as for B6
B9: mAb 12.7 (antibody, human IgG4 S228P, kappa, V domains shown)
VH: B1 VH with Y32E, S55L, G61N, F64Y
VL: B1 VL with W32Y
notes: as for B6
B10: mAb 4.17 (antibody, human IgG4 S228P, kappa, V domains shown)
VH: B1 VH with A54F, G61N
VL: B1 VL with I96A
notes: as for B6
B11: 1D11.16 (antibody, from another filing, V domains shown)
VH: QVQLQQSGPELVRPGASVKLSCKASGYIFITYWMNWVKQRPGQGLEWIGQIFPASGSTNYNEMFEGKATLTVDTSSSTAYMQLSSLTSEDSAVYYCARGDGNYALDAMDYWGQGTSVTVSS
VL: DIVLTQSPASLAVSLGQRATISCRASESVDSYGNSFMHWYQQKSGQPPKLLIYLASNLESGVPARFSGSGSRTDFTLTIDPVEADDAATYYCQQNNEDPLTFGAGTKLEIK

Target: T3, mature human TGF-β1 (human, UniProt P01137 279-390)
T3 construct: Bought protein (R&D Systems, Cat # 240-B/CF); also called TGF Beta 1; TGF-b1
Test: KinExA 3000, equilibrium in solution
Method: (§1) A KinExA 3000 instrument (Sapidyne Inst. Inc.) measures binding kinetics. Briefly, antigen is covalently-coupled to azlactone beads and the binding of an invention free Fab to the beads is detected on the instrument. […] After incubation, free Fab in each equilibrated sample is determined on KinExA 3000 per manufacturer instructions. Kd values are determined using KinExA 3000 software. To measure kₒₙ, individual Fabs at 2 nM are mixed with 0-240 nM of antigen using the injection method according to manufacturer's instructions, and the unbound Fab is detected. The resulting data is used to calculate the kₒₙ with KinExA 3000 software. The koff is calculated using the formula K_{d=k}off/kₒₙ. Affinity data obtained under KinExA© conditions for Fab embodiments binding TGF Beta 1 are shown below in Table 1.

T3 sequence (P01137 279-390 limits assumed): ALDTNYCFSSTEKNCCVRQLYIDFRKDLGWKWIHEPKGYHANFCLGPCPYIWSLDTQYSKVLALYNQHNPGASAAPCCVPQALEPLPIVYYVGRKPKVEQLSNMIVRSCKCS

Q: Which Kd does the source give for B1 here?
A: Its Kd is 15 pM.

Q: B2 was tested. Which Kd did it give?
A: Its Kd is 0.28 pM.

Q: For B3, which Kd is on record?
A: The Kd was 1.55 pM.

Q: With B4 as the binder, how does the Kd read?
A: Its Kd is 0.09 pM.

Q: With B5 as the binder, how does the Kd read?
A: Its Kd is 0.22 pM.

Target: T3, mature human TGF-β1
Test: KinExA 3000, calculated from Kd and kon
Method: as §1

Q: Which koff does the source give for B1 here?
A: Its koff is 0.00031 s⁻¹.

Q: With B2 as the binder, how does the koff read?
A: The koff was 6e-06 s⁻¹.

Q: B3 was tested. Which koff did it give?
A: The koff was 5.2e-05 s⁻¹.

Q: B4 was tested. Which koff did it give?
A: The koff was 3.4e-07 s⁻¹.

Q: B5 was tested. Which koff did it give?
A: Its koff is 5.5e-06 s⁻¹.

Target: T3, mature human TGF-β1
Test: BIAcore 2000 SPR, antibody captured on Protein A, TGF-β injected
Method: (§2) Alternate methods of measuring kinetic constants are known, for example: affinity of an invention antibody for TGF-β1 (R&D Systems, Cat # 240-B/CF), TGF-β2 (RDI, Cat #RDI-1035), and TGF-β3 (RDI, Cat # RDI-1036/CF) is measured by BIAcore® 2000. Binding affinity measurements for full-length monoclonal antibodies of the invention are determined using Biacore. Except as noted, all reagents and materials are purchased from BIAcore® AB (Upsala, Sweden). All measurements made at room temperature. Samples are dissolved in HBS-EP buffer (150 mM sodium chloride, 3 mM EDTA, 0.01% (w/v) surfactant P-20, and 10 mM HEPES, pH 7.4). Recombinant Protein A is immobilized on all four flow cells of a CM4 sensor chip at a level of 400-450 response units (RUs) using an amine coupling kit. Binding is evaluated using multiple analytical cycles. Each cycle is performed at a flow rate of 50 μL/min consisting of the steps: injection of 12 μL of antibody at 0.5 μg/mL, injection of 250 μL of TGF-β1 (starting at 5 nM and using two-fold serial dilutions to 0.13 nM for each cycle, with two injections for each concentration) followed by either a short (5 min) or long (120 min) delay for dissociation, and regeneration using two injections of 50 μL of 10 mM glycine hydrochloride, pH 1.5. Association and dissociation rates per cycle are made by fitting the biosensor data from a simple association model using ClampXP (Center for Biomolecular Interaction Analysis, Univ. of Utah) to extract the kₒₙ and koff rate constants; the equilibrium binding constant Kd is calculated from Kd=koff/kₒₙ.
(§3) When mAbs are measured using the described assay, the results are as stated in Table 2 below.

Q: B6 was tested. Which Kd did it give?
A: The Kd was < 0.2 pM.

Q: What about the koff of the same binder?
A: The koff was 6.71e-06 s⁻¹.

Q: And the kon?
A: Its kon is > 4e+07 M⁻¹ s⁻¹.

Q: Which results are given for B7?
A: Kd: < 2 pM; koff: 0.000107 s⁻¹; kon: > 5e+07 M⁻¹ s⁻¹

Q: Which Kd does the source give for B8 here?
A: The Kd was < 0.2 pM.

Q: What about the koff of the same binder?
A: The koff was 7.92e-06 s⁻¹.

Q: What about the kon of the same binder?
A: The kon was > 5e+07 M⁻¹ s⁻¹.

Q: How did the Kd turn out when B9 was run?
A: The Kd was < 0.2 pM.

Q: What about the koff of the same binder?
A: The koff was 7.93e-06 s⁻¹.

Q: What about the kon of the same binder?
A: Its kon is > 5e+07 M⁻¹ s⁻¹.

Q: How did the Kd turn out when B10 was run?
A: Its Kd is < 0.2 pM.

Q: What about the koff of the same binder?
A: Its koff is 9.71e-06 s⁻¹.

Q: And the kon?
A: Its kon is > 5e+07 M⁻¹ s⁻¹.

Target: T1, mature human TGF-β3
Test: as above
Method: as §2, §3

Q: For B6, which Kd is on record?
A: The Kd was 0.851 pM.

Q: And the koff?
A: Its koff is 1.53e-05 s⁻¹.

Q: What about the kon of the same binder?
A: The kon was 1.76e+07 M⁻¹ s⁻¹.

Q: Which results are given for B7?
A: Kd: 0.926 pM; koff: 2.38e-05 s⁻¹; kon: 2.9e+07 M⁻¹ s⁻¹

Q: Which results are given for B8?
A: Kd: 0.54 pM; koff: 1.12e-05 s⁻¹; kon: 1.85e+07 M⁻¹ s⁻¹

Q: Which Kd does the source give for B9 here?
A: Its Kd is 0.82 pM.

Q: What about the koff of the same binder?
A: The koff was 1.28e-05 s⁻¹.

Q: And the kon?
A: Its kon is 1.56e+07 M⁻¹ s⁻¹.

Q: What does the source list for B10?
A: Kd: 1.53 pM; koff: 2.84e-05 s⁻¹; kon: 2.17e+07 M⁻¹ s⁻¹

Target: T2, mature human TGF-β2
Test: as above
Method: as §2, §3

Q: Which results are given for B6?
A: Kd: 0.265 pM; koff: 6e-06 s⁻¹; kon: 2.42e+07 M⁻¹ s⁻¹

Q: Which Kd does the source give for B7 here?
A: Its Kd is < 4 pM.

Q: And the koff?
A: Its koff is 0.000218 s⁻¹.

Q: What about the kon of the same binder?
A: The kon was > 5e+07 M⁻¹ s⁻¹.

Q: With B8 as the binder, how does the Kd read?
A: The Kd was 1 pM.

Q: What about the koff of the same binder?
A: Its koff is 1.22e-05 s⁻¹.

Q: What about the kon of the same binder?
A: The kon was 2.29e+07 M⁻¹ s⁻¹.

Q: B9 was tested. Which Kd did it give?
A: Its Kd is 0.473 pM.

Q: What about the koff of the same binder?
A: Its koff is 1.11e-05 s⁻¹.

Q: What about the kon of the same binder?
A: The kon was 2.8e+07 M⁻¹ s⁻¹.

Q: B10 was tested. Which Kd did it give?
A: Its Kd is 0.529 pM.

Q: And the koff?
A: The koff was 9.86e-06 s⁻¹.

Q: What about the kon of the same binder?
A: The kon was 2.37e+07 M⁻¹ s⁻¹.

Target: T3, mature human TGF-β1
Test: KinExA 3000, solution phase, antigen-coupled beads
Method: as §1

Q: B1 was tested. Which kon did it give?
A: Its kon is 2.1e+07 M⁻¹ s⁻¹.

Q: How did the kon turn out when B2 was run?
A: The kon was 2.2e+07 M⁻¹ s⁻¹.

Q: B3 was tested. Which kon did it give?
A: Its kon is 3.4e+07 M⁻¹ s⁻¹.

Q: B4 was tested. Which kon did it give?
A: Its kon is 3.7e+06 M⁻¹ s⁻¹.

Q: How did the kon turn out when B5 was run?
A: The kon was 2.6e+07 M⁻¹ s⁻¹.

Target: T3, mature human TGF-β1
Test: cell-based or functional assay

Q: With B11 as the binder, how does the HT-2 cell neutralization assay, IC50 (Mean ng/ml) read?
A: The HT-2 cell neutralization assay, IC50 (Mean ng/ml) was 215 ng/mL.

Q: How did the “HT-2 cell neutralization assay, IC50 (Mean ng/ml)” value (“HT-2 cell neutralization assay” below) turn out when B6 was run?
A: Its value is 0.44 ng/mL.

Q: How did the “HT-2 cell neutralization assay” value turn out when B7 was run?
A: Its value is 2.62 ng/mL.

Q: B9 was tested. Which “HT-2 cell neutralization assay” value did it give?
A: Its value is 0.59 ng/mL.

Q: B10 was tested. Which “HT-2 cell neutralization assay” value did it give?
A: The value was 0.42 ng/mL.

Target: T1, mature human TGF-β3
Test: cell-based or functional assay

Q: How did the HT-2 cell neutralization assay, IC50 (Mean ng/ml) turn out when B11 was run?
A: Its HT-2 cell neutralization assay, IC50 (Mean ng/ml) is 100 ng/mL.

Q: With B6 as the binder, how does the “HT-2 cell neutralization assay” value read?
A: Its value is 5.22 ng/mL.

Q: For B7, which “HT-2 cell neutralization assay” value is on record?
A: The value was 16.9 ng/mL.

Q: B9 was tested. Which “HT-2 cell neutralization assay” value did it give?
A: Its value is 6.78 ng/mL.

Q: For B10, which “HT-2 cell neutralization assay” value is on record?
A: Its value is 15.8 ng/mL.

Target: T2, mature human TGF-β2
Test: cell-based or functional assay

Q: For B11, which HT-2 cell neutralization assay, IC50 (Mean ng/ml) is on record?
A: Its HT-2 cell neutralization assay, IC50 (Mean ng/ml) is 574 ng/mL.

Q: For B6, which “HT-2 cell neutralization assay” value is on record?
A: Its value is 6.14 ng/mL.

Q: How did the “HT-2 cell neutralization assay” value turn out when B7 was run?
A: The value was 51.4 ng/mL.

Q: How did the “HT-2 cell neutralization assay” value turn out when B9 was run?
A: Its value is 3.34 ng/mL.

Q: B10 was tested. Which “HT-2 cell neutralization assay” value did it give?
A: Its value is 3.65 ng/mL.
